According to a protein production outcome set (Wang et al. 2014):

Test: label from the status in PepcDB records

| Sequence | protein production |
| --- | --- |
| AADERVKEMWAYSPSMDRNVPLVVITADESAGPRPVIYLLNGGDGGEGAANWVMQTDVLDFYLEKNVNVVIPMEGKFSYYTDWVEENASLGGKQMWETFLVKELPGPLEEKLNTDGQRAIAGMSMSATTSLLFPQHFPGFYDAAASFSGCAATSSLLPWEYLKLTLDRGNATPEQMWGPRGGEYNIYNDALINSDKLRGTELYVSNASGLAGEWESVDSPRFEGLNQQVQSIAMAETVVTGGIIEAATNKCTHDLKAKLDSAGIPADWNLRPTGTHSWGWWQDDLRGSWTTFARAFEL | failed |
| AAGAVRTDPVIHLHGSRSEDEPTTVLVHAGTATIMPYRALITEIRRRSPGLAEVVGVEVPDLSGFLAAPPDGLIERMAADYARALTADGRHRFHVVGYCLGGLIATEVARNLAESGAEVESLTVISSHSPRFRLDDELLAEYSFAVMMGIDPADLGFPDDQYRVAAAADTVLAASPGVLPDGGLAALGGEFEDVASRFRRLADVPRATRIARMCEAVPASAGTYEPDHMTRLFLAFRQSVFAITRYRAEPYAGDITFLRHDGAYPFPGSKDAVTAYWEELTLGDLDIVDIGGDHYSCLSVEHAPGILKTLGELTQGAITR | failed |
| AARNLSKEEYAANHPAGRIGKSLIFKVKDVMKKQEELPVCKEGDLIMDQLVELTSKGCGCLLVVDEHSRLIGTFTDGDLRRTLKASGEAIFKLSVGEMCNRKPRTIGPETMAVEAMKKMESPPSPVQFLPVVNEDNTLIGIVTLHGLVSA | failed |
| ACEQNEDWVVNEPMQSFEENPEYAPLNTIPDWVSEKVTPKEYELWRTMSSRYEINYSFLKKDISEKRKKEIYDCINNICERIEKGQINKYEGFLNIADEDGTTLSDSQYFGRIATRSPEGGAEYKTNGCTLYTHSLGPYIKAAVTYKKSDDDVTITSSSVYTGSPYLGNDPSFSGASSVSYDKDKKLIAASCSGTLSFKDGSRKVEVTVQKTGFMIP | not failed |
| ADKFTFIGFLSKKDSEQKKQLEELMPLDSTLIFYESPFRVGKTLENVRAIFGEKTKVVLARELTKKFESYYRGDITQALNFIKSNRPRGEFVLLIKKIHEA | failed |
| AEIVEGRDYTVLSAPQPTEGDSEHIEVIEFFWYGCPHCSDLHPHLSRWLENKPADVAFRFVPAILRNNWVPGAKTFYAMESLGLTQTLHDKVYHAIHREKTDLSKEATLFDWIGKQGVDRDKFIGAYNSFTVQNQANRSAQMIRQYKLTGVPALVVDGRYLTSGKAGGTPQDTISVLNQLIEK | failed |
| AEMKTYSHRTMPSACTLVMCSSVESGLPGRDGRDGREGPRGEKGDPGLPGAAGQAGMPGQAGPVGPKGDNGSVGEPGPKGDTGPSGPPGPPGVPGPAGREGPLGKQGNIGPQGKPGPKGEAGPKGEVGAPGMQGSAGARGLAGPKGERGVPGERGVPGNTGAAGSAGAMGPQGSPGARGPPGLKGDKGIPGDKGAKGESGLPDVASLRQQVEALQGQVQHLQAAFSQYKKVELFPNGQSVGEKIFKTAGFVKPFTEAQLLCTQAGGQLASPRSAAENAALQQLVVAKNEAAFLSMTDSKTEGKFTYPTGESLVYSNWAPGEPNDDGGSEDCVEIFTNGKWNDRACGEKRLVVCEF | failed |
| AGGEDRGDGEPVSVVTVRVQYLEDTDPFACANFPEPRRAPTCSLDGALPLGAQIPAVHRLLGAPLKLEDCALQVSPSGYYLDTELSLEEQREMLEGFYEEISKGRKPTLILRTQLSVRVNAILEKLYSSSGPELRRSLFSLKQIFQEDKDLVPEFVHSEGLSCLIRVGAAADHNYQSYILRALGQLMLFVDGMLGVVAHSDTIQWLYTLCASLSR | failed |
| AGVMTGAKFTQIQFGMTRQQVLDIAGAENCETGGSFGDSIHCRGHAAGDYYAYATFGFTSAAADAKVDSKSQEKLLAPSAPTLTLAKFNQVTVGMTRAQVLATVGQGSCTTWSEYYPAYPSTAGVTLSLSCFDVDGYSSTGAYRGSAHLWFTDGVLQGKRQWDLV | not failed |
| AGVSISAQNLIKNEKFATEVTNKVTNPSKATAGEWFIMNNEADGVTTIAWEQTGDAKYPNAMKIDNSGAEKNTSWYKAFLGQRITDGLEKGIYVLTFYAKAKEAGTPVSVYIKQTNEEKNDNGKLNTTFFMRRDYDADAQPNASGAQYNFKIKDADKWTKVVVYYDMGQVVNAISSKKSNPALEVSDTDDDAAILKDCYVAILGQNKGGVVEISDVTLKKK | not failed |
